Data from patent publication US20250250357A1 (NANJING ZAIMING PHARMACEUTICAL, published 2025).
Values belong to the binder of their own block, whether it stands above or below them.

Assays:
[1] = target: T1, human MSLN-R2-his protein (human, UniProt Q13421 391-486); assay: ELISA, coated antigen; antibody 0.0001 nM
T1 construct: also called human MSLN-R2 protein; hMSLN-R2-his; not shown: His tag

[2] = target: T1, human MSLN-R2-his protein; assay: ELISA, coated antigen; no antibody (blank, column 'none')
Method: (§1) The plate was sealed with a plastic film and incubated at 4° C. overnight. The next day, the plate was washed twice with PBST, and a blocking buffer [PBS+2% (w/w) BSA] was added for blocking at room temperature for 2 h. The blocking buffer was discarded, and a chimeric antibody or negative control antibody serially diluted from 100 nM was added at 50 μL/well. After incubation at 37° C. for 2 h, the plate was washed 3 times with PBST. […] After incubation at 37° C. for 2 h, the plate was washed 5 times with PBST. A TMB substrate was added at 50 μL/well for incubation at room temperature for 5-10 min, and then a stop solution (1.0 N HCl) was added at 50 μL/well.

[3] = target: T2, human MSLN-FL-his protein (human, UniProt Q13421 296-580); assay: ELISA, coated antigen; antibody 0.1 nM
T2 construct: also called human MSLN full-length protein; hMSLN-FL-his; not shown: His tag
T2 sequence (Q13421 other isoform, or with tags, fused parts or gaps): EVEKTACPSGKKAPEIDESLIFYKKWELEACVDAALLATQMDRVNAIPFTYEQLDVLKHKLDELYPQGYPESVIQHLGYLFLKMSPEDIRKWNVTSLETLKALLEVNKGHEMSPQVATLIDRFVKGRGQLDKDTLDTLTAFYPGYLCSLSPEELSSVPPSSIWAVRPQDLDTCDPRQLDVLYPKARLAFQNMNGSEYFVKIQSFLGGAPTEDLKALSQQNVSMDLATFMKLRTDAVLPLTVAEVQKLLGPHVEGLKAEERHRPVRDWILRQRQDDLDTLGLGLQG

[4] = target: T3, human MSLN-R1-his protein (human, UniProt Q13421 296-390); assay: ELISA, coated antigen; antibody 0.001 nM
T3 construct: also called human MSLN-R1 protein; hMSLN-R1-his; not shown: His tag
T3 sequence (Q13421 other isoform, or with tags, fused parts or gaps): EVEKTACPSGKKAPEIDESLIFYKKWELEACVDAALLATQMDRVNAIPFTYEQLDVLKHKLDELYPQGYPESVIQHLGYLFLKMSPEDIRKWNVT

[5] = target: T1, human MSLN-R2-his protein; assay: ELISA, coated antigen; antibody 0.001 nM
Method: as §1

[6] = target: T1, human MSLN-R2-his protein; assay: ELISA, coated antigen; antibody 0.01 nM
Method: as §1

[7] = target: T1, human MSLN-R2-his protein; assay: ELISA, coated antigen; antibody 10 nM
Method: as §1

[8] = target: T3, human MSLN-R1-his protein; assay: ELISA, coated antigen; antibody 0.1 nM
Method: as §1

[9] = target: T3, human MSLN-R1-his protein; assay: ELISA, coated antigen; antibody 1 nM
Method: as §1

[10] = target: T3, human MSLN-R1-his protein; assay: ELISA, coated antigen; antibody 10 nM
Method: as §1

[11] = target: T2, human MSLN-FL-his protein; assay: ELISA, coated antigen; antibody 0.01 nM
Method: as §1

[12] = target: T1, human MSLN-R2-his protein; assay: ELISA, coated antigen; antibody 1 nM
Method: as §1

[13] = target: T2, human MSLN-FL-his protein; assay: ELISA, coated antigen; antibody 0.001 nM
Method: as §1

[14] = target: T3, human MSLN-R1-his protein; assay: ELISA, coated antigen; antibody 100 nM
Method: as §1

[15] = target: T3, human MSLN-R1-his protein; assay: ELISA, coated antigen; antibody 0.01 nM
Method: as §1

[16] = target: T2, human MSLN-FL-his protein; assay: ELISA, coated antigen; antibody 100 nM
Method: as §1

[17] = target: T3, human MSLN-R1-his protein; assay: ELISA, coated antigen; antibody 0.0001 nM
Method: as §1

[18] = target: T2, human MSLN-FL-his protein; assay: ELISA, coated antigen; antibody 0.0001 nM
Method: as §1

[19] = target: T1, human MSLN-R2-his protein; assay: ELISA, coated antigen; antibody 100 nM
Method: as §1

[20] = target: T1, human MSLN-R2-his protein; assay: ELISA, coated antigen; antibody 0.1 nM
Method: as §1

[21] = target: T2, human MSLN-FL-his protein; assay: ELISA, coated antigen; antibody 10 nM
Method: as §1

[22] = target: T2, human MSLN-FL-his protein; assay: ELISA, coated antigen; no antibody (blank, column 'none')
Method: as §1

[23] = target: T2, human MSLN-FL-his protein; assay: ELISA, coated antigen; antibody 1 nM
Method: as §1

[24] = target: T3, human MSLN-R1-his protein; assay: ELISA, coated antigen; no antibody (blank, column 'none')
Method: as §1

[25] = target: T4, human MSLN-R3-his protein (human, UniProt Q13421 487-598); assay: ELISA, coated antigen, antibody 1 nM
T4 construct: Made in HEK293E cells, purified on nickel column; also called hMSLN-R3-his; human MSLN-R3 protein; not shown: His tag
T4 sequence (Q13421 495-606): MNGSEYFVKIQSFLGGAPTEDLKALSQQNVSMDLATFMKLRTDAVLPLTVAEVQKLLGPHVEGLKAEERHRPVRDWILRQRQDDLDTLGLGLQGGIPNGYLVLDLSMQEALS

[26] = target: T4, human MSLN-R3-his protein; assay: ELISA, coated antigen, antibody 0.0001 nM
[27] = target: T5, human MSLN-R3-3 polypeptide (human); assay: ELISA, coated antigen, antibody 0.001 nM
T5 construct: Part of region R3 of human MSLN; also called hMSLN-R3-3; human MSLN-R3-3 protein
Method: as §1

[28] = target: T4, human MSLN-R3-his protein; assay: ELISA, coated antigen, antibody 10 nM
Method: as §1

[29] = target: T5, human MSLN-R3-3 polypeptide; assay: ELISA, coated antigen, no antibody (blank)
[30] = target: T5, human MSLN-R3-3 polypeptide; assay: ELISA, coated antigen, antibody 0.01 nM
Method: as §1

[31] = target: T5, human MSLN-R3-3 polypeptide; assay: ELISA, coated antigen, antibody 100 nM
Method: as §1

[32] = target: T4, human MSLN-R3-his protein; assay: ELISA, coated antigen, no antibody (blank)
Method: as §1

[33] = target: T4, human MSLN-R3-his protein; assay: ELISA, coated antigen, antibody 0.01 nM
Method: as §1

[34] = target: T5, human MSLN-R3-3 polypeptide; assay: ELISA, coated antigen, antibody 0.0001 nM
Method: as §1

[35] = target: T5, human MSLN-R3-3 polypeptide; assay: ELISA, coated antigen, antibody 1 nM
Method: as §1

[36] = target: T4, human MSLN-R3-his protein; assay: ELISA, coated antigen, antibody 0.001 nM
Method: as §1

[37] = target: T5, human MSLN-R3-3 polypeptide; assay: ELISA, coated antigen, antibody 0.1 nM
Method: as §1

[38] = target: T4, human MSLN-R3-his protein; assay: ELISA, coated antigen, antibody 100 nM
Method: as §1

[39] = target: T5, human MSLN-R3-3 polypeptide; assay: ELISA, coated antigen, antibody 10 nM
Method: as §1

[40] = target: T4, human MSLN-R3-his protein; assay: ELISA, coated antigen, antibody 0.1 nM
Method: as §1

T1 sequence (Q13421 other isoform, or with tags, fused parts or gaps): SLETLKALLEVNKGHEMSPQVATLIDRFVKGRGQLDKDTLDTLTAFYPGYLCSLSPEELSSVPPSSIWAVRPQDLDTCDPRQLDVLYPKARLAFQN

B1: S009-F4-94.15 (antibody, human IgG1, kappa, V domains shown)
VH: QVQLHQPGAELVRPGSSVKLSCKASGYTFTSYWVHWVQQRPRQGLEWIGNIDPSDSEIHYNQKFKDKATLTVDKSSSTAYIHLSRLTSEDSAIYYCVRGGVPWFAYWGQGTLVTVSA
VL: QIVLTQSPAIMSASPGEKVTLTCSASSSVSSTYLYWFQQKPGSSPKVWIYSTSNLASGVPARFSGSGSGTSYSLTISSMEAEDAASYFCHQWISYPYTFGGGTKLEIKR
notes: Human-murine chimeric antibody, human IgG1/kappa constant regions
OD450 [1]: 0.06 OD450
OD450 [2]: 0.07 OD450
OD450 [3]: 1.57 OD450
OD450 [4]: 0.05 OD450
OD450 [5]: 0.05 OD450
OD450 [6]: 0.05 OD450
OD450 [7]: 0.06 OD450
OD450 [8]: 0.05 OD450
OD450 [9]: 0.05 OD450
OD450 [10]: 0.06 OD450
OD450 [11]: 0.57 OD450
OD450 [12]: 0.05 OD450
OD450 [13]: 0.13 OD450
OD450 [14]: 0.07 OD450
OD450 [15]: 0.05 OD450
OD450 [16]: 1.9 OD450
OD450 [17]: 0.05 OD450
OD450 [18]: 0.06 OD450
OD450 [19]: 0.07 OD450
OD450 [20]: 0.05 OD450
OD450 [21]: 1.84 OD450
OD450 [22]: 0.06 OD450
OD450 [23]: 1.79 OD450
OD450 [24]: 0.07 OD450

B3: S009-F5-9.16 chimeric antibody (antibody, human IgG1, kappa, V domains shown)
VH: EVQLRQSGPVLVKPGASVKMSCKASGYTFTDYFMNWVKPSHGKSLEWIGVINPSNGVINYNQRFKGKATLTVDKSSSTAYMELNSLTSEDSAVYYCARSYDFAWFAYWGQGTLVTVSA
VL: DVLMTQTPLSLPVSLGDQASISCRSSQNIVHSNGNTYLEWYLQKPGQSPKLLIYTVSNRFSGVPDRFSGSGSGTDFTLKISRVEAEDLGVYYCFQGSHVPYTFGGGTKLEIKR
notes: as for B1
OD450 [25]: 2.32
OD450 [26]: 0.12
OD450 [27]: 0.04
OD450 [28]: 2.36
OD450 [29]: 0.05
OD450 [30]: 0.04
OD450 [31]: 1.99
OD450 [32]: 0.05
OD450 [33]: 1.11
OD450 [34]: 0.05
OD450 [35]: 0.13
OD450 [36]: 0.26
OD450 [37]: 0.05
OD450 [38]: 2.28
OD450 [39]: 0.67
OD450 [40]: 1.82

B5: S009-F4-127.10 chimeric antibody (antibody, human IgG1, kappa, V domains shown)
VH: EVQLQQSGPVLVKPGASVKMSCKASGYTFTDYYMNWVKQSHGKSPEWIGVINPYNDVISYNQKFKGKATLTVDKSSSTAYMELNSLTSEDSAVYYCANYGSSYYAMDYWGQGTSVTVSS
VL: DVVMTQTPLSLSVSLGDQASISCRSSQSLVHSNGNTYLQWSLQKPGQSPNLLIYKVSNRFSGVPDRFSGSGSGTDFTLKISRVEAEDLGVYFCSQTTHVPFTFGGGTKLEIRR
notes: as for B1
OD450 [25]: 1.82
OD450 [26]: 0.06
OD450 [27]: 0.05
OD450 [28]: 1.93
OD450 [29]: 0.07
OD450 [30]: 0.05
OD450 [31]: 0.14
OD450 [32]: 0.07
OD450 [33]: 0.41
OD450 [34]: 0.06
OD450 [35]: 0.05
OD450 [36]: 0.09
OD450 [37]: 0.05
OD450 [38]: 2.1
OD450 [39]: 0.06
OD450 [40]: 1.31

Continued, values first:

OD450 [25]: 0.04
OD450 [26]: 0.04
OD450 [27]: 0.04
OD450 [28]: 0.05
OD450 [29]: 0.04
OD450 [30]: 0.05
OD450 [31]: 0.07
OD450 [32]: 0.05
OD450 [33]: 0.04
OD450 [34]: 0.05
OD450 [35]: 0.04
OD450 [36]: 0.05
OD450 [37]: 0.05
OD450 [38]: 0.08
OD450 [39]: 0.04
OD450 [40]: 0.04
B2: S009-F6-76.1 chimeric antibody (antibody, human IgG1, kappa, V domains shown)
VH: QVQLQQSGPELVKPGASVKISCKASGYTFTDYYINWVKQRPGQGLEWIGWIFPGRGSTFYYEKFKGKATLTVDKSSSTAYMLLSSLTSEDSAVYFCARRGDSAGYEDLDYWGQGTSVTVSS
VL: NIVMTQSPKFMSMSVGERVTLSCKASENVVTYVSWYQQKPKQSPKLLIYGASKRYTGVPDRFTGSGSATDFTLTISSVQAEDLGDYHCGQSYSYPYTFGGGTKLEIKR
notes: as for B1

OD450 [1]: 0.06 OD450
OD450 [2]: 0.06 OD450
OD450 [3]: 0.06 OD450
OD450 [4]: 0.05 OD450
OD450 [5]: 0.05 OD450
OD450 [6]: 0.05 OD450
OD450 [7]: 0.06 OD450
OD450 [8]: 0.05 OD450
OD450 [9]: 0.05 OD450
OD450 [10]: 0.06 OD450
OD450 [11]: 0.06 OD450
OD450 [12]: 0.05 OD450
OD450 [13]: 0.06 OD450
OD450 [14]: 0.08 OD450
OD450 [15]: 0.05 OD450
OD450 [16]: 0.21 OD450
OD450 [17]: 0.05 OD450
OD450 [18]: 0.06 OD450
OD450 [19]: 0.09 OD450
OD450 [20]: 0.05 OD450
OD450 [21]: 0.09 OD450
OD450 [22]: 0.06 OD450
OD450 [23]: 0.06 OD450
OD450 [24]: 0.06 OD450
B4: S009-F4-127.10 (antibody, human IgG1, kappa, V domains shown)
VH: B5 VH
VL: B5 VL
notes: as for B1
